These results are taken from publication doi:10.1101/2020.01.02.893370 (bioRxiv, 2020).

The target in data set [1] is sigma70 (RpoD);RNAP core enzyme wild type (alpha2 beta beta' omega) (Escherichia coli;Escherichia coli, UniProt P00579;P0A7Z4;P0A8V2;P0A8T7;P0A800 1-613;1-329;1-1342;1-1407;1-91, |). The experiment in a line: DNase I footprinting.
For data set [2], the target named is E. coli RNA polymerase β′ subunit (E. coli, UniProt P0A8T7 1-1407). The experiment in a line: cryo-EM structure.
Chain of E. coli RNA polymerase β′ subunit (P0A8T7 whole entry): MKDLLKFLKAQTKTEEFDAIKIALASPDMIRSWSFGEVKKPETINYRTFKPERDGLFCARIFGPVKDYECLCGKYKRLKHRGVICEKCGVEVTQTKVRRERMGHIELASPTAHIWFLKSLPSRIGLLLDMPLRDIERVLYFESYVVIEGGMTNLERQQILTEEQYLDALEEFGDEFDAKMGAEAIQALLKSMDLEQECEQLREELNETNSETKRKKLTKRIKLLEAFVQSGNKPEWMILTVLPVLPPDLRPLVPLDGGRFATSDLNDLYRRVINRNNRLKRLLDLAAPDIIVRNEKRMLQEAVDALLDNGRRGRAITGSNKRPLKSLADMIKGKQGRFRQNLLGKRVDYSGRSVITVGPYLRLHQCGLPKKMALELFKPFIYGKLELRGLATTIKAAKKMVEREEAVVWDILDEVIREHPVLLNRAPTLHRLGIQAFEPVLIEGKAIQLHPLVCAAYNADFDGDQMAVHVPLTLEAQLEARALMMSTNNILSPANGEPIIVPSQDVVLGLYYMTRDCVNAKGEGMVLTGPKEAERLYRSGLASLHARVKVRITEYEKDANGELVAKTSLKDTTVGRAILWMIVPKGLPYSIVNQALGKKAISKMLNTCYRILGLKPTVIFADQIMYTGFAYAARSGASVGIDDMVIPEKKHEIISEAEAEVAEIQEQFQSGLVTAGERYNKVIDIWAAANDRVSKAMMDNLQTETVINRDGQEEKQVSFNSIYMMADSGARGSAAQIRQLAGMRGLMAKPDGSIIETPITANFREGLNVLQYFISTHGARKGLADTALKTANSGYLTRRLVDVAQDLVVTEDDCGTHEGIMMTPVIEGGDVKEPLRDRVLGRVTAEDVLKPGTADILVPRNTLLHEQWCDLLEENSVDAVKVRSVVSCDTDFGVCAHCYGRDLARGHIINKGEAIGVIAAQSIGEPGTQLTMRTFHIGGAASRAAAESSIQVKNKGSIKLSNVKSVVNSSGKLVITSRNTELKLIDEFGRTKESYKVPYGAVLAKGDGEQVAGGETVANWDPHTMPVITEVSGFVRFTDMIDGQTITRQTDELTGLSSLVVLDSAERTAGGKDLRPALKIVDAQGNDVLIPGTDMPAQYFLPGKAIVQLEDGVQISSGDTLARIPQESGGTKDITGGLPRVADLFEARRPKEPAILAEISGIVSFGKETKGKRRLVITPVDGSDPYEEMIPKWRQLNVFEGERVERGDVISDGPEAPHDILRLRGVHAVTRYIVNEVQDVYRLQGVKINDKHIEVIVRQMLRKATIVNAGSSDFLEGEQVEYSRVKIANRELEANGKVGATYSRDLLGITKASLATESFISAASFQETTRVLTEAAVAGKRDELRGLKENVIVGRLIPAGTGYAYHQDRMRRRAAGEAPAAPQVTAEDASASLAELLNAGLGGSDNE

Chain of sigma70 (RpoD);RNAP core enzyme wild type (alpha2 beta beta' omega) (P00579 whole entry, chain 1 of 4): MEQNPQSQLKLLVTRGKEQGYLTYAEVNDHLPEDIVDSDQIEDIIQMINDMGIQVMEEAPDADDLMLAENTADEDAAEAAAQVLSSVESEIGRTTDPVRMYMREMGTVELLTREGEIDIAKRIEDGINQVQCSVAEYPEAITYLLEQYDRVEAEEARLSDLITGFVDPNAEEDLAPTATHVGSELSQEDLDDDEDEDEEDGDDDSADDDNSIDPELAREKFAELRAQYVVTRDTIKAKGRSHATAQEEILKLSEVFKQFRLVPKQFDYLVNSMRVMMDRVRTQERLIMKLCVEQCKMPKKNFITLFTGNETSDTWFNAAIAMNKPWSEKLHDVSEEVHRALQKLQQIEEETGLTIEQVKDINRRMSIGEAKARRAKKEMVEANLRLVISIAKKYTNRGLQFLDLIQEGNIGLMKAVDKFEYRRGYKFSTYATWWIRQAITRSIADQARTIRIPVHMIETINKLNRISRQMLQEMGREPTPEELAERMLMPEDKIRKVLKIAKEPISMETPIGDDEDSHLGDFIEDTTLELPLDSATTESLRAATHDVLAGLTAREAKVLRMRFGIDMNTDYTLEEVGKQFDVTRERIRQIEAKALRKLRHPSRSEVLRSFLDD
Chain of sigma70 (RpoD);RNAP core enzyme wild type (alpha2 beta beta' omega) (P0A7Z4 whole entry, chain 2 of 4): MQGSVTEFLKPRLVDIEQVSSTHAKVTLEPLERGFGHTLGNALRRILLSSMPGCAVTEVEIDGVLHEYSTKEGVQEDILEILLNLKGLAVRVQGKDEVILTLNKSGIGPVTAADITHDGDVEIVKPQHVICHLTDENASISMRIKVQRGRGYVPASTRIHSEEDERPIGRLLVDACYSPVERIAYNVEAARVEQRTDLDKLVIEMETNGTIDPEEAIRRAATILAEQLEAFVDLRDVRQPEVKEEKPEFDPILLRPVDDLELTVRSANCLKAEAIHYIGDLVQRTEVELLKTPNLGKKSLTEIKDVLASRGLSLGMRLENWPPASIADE
Chain of sigma70 (RpoD);RNAP core enzyme wild type (alpha2 beta beta' omega) (P0A8V2 whole entry, chain 3 of 4): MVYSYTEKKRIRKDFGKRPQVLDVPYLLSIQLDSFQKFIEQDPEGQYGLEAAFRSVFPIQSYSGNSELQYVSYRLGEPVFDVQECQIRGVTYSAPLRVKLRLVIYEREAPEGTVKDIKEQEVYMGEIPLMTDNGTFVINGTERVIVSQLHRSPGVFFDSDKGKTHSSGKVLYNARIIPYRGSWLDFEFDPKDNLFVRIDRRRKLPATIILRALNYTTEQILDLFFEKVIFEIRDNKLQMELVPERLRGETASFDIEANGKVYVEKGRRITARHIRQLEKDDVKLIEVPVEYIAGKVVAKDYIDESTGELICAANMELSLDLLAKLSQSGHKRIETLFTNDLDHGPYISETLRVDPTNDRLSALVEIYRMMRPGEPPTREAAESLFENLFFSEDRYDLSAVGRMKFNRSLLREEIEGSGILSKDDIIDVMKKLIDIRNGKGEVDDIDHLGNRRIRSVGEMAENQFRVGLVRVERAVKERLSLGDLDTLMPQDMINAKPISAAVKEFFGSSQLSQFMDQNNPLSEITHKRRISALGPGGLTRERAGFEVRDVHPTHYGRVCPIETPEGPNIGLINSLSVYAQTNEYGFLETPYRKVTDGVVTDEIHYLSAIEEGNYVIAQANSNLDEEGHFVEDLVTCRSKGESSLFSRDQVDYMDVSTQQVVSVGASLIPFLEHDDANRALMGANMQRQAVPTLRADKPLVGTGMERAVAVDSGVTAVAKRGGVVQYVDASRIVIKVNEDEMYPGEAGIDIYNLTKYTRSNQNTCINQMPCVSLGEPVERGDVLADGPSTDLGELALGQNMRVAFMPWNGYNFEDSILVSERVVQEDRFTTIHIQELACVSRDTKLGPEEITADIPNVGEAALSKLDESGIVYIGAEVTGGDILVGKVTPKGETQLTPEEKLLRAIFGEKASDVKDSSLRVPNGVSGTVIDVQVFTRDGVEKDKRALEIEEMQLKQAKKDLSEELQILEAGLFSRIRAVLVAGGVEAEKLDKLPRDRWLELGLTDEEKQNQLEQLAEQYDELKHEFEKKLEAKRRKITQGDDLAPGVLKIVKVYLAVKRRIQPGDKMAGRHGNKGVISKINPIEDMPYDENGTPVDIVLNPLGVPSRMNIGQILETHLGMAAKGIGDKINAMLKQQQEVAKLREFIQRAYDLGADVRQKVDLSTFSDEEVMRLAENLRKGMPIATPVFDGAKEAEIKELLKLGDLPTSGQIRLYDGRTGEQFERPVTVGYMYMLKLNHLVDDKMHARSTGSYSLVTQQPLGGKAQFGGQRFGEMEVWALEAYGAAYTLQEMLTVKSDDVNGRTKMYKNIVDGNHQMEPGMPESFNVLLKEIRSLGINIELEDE
Chain of sigma70 (RpoD);RNAP core enzyme wild type (alpha2 beta beta' omega) (P0A800 whole entry, chain 5 of 4): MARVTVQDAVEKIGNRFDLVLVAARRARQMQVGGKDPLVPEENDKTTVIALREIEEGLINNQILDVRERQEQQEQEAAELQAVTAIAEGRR

B1: lacUV5p (dsDNA)
DNA 1: CCCGCCGACAGGTTTCCCGACTGGAAAGCGGGCAGTGAGCGCAACGCAATTAATGTGAGTTAGCTCACTCATTAGGCACCCCAGGCTTTACACTTTATGCTTCCGGCTCGTATAATGTGTGGAATTGTGAGCGGATAACAATTTCACACAGGAAACAGCTATGACCATGGGCGCGG
DNA 2: CCGCGCCCATGGTCATAGCTGTTTCCTGTGTGAAATTGTTATCCGCTCACAATTCCACACATTATACGAGCCGGAAGCATAAAGTGTAAAGCCTGGGGTGCCTAATGAGTGAGCTAACTCACATTAATTGCGTTGCGCTCACTGCCCGCTTTCCAGTCGGGAAACCTGTCGGCGGG
In the case of B1, the binding result in data set [1] is reported as “binds”.

B2: E. coli σ^28 factor (natural protein, UniProt P0AEM6 1-239, looked up)
chain: MNSLYTAEGVMDKHSLWQRYVPLVRHEALRLQVRLPASVELDDLLQAGGIGLLNAVERYDALQGTAFTTYAVQRIRGAMLDELRSRDWVPRSVRRNAREVAQAIGQLEQELGRNATETEVAERLGIDIADYRQMLLDTNNSQLFSYDEWREEHGDSIELVTDDHQRENPLQQLLDSNLRQRVMEAIETLPEREKLVLTLYYQEELNLKEIGAVLEVGESRVSQLHSQAIKRLRTKLGKL
For B2, the binding result in data set [2] is on record as “binds”.
